Test results: paper PMC11576661, “Biocatalytic sulfation of aromatic and aliphatic alcohols catalyzed by arylsulfate sulfotransferases” (Applied Microbiology and Biotechnology, 2024)

Columns and labels:
Test in all cases: purified protein
Settings in all cases: apparent, sulfate donor, acceptor phenol 100 mM, Tris/HCl 50 mM pH 8.0, 30 °C
purified protein [1] = substrate: O=[N+]([O-])c1ccc(OS(=O)(=O)O)cc1; format: biochemical, Dehalobacterium formicoaceticum
purified protein [2] = substrate: O=[N+]([O-])c1ccc(OS(=O)(=O)O)cc1; format: biochemical, Desulfosporosinus orientis
purified protein [3] = substrate: O=[N+]([O-])c1ccc(OS(=O)(=O)O)cc1; format: biochemical, Desulfitobacterium hafniense
purified protein [4] = substrate: O=[N+]([O-])c1ccc(OS(=O)(=O)O)cc1; format: biochemical, Hungatella effluvii
purified protein [5] = substrate: O=[N+]([O-])c1ccc(OS(=O)(=O)O)cc1; format: biochemical, Desulfitobacterium dehalogenans

B1: ASSTDfor (Dehalobacterium formicoaceticum) (protein)
chain: MNAIKSEQVPHIIHQQEKLEKAFLAEFAAGGYTLYNPLVKINPYGICPLTAMVLFETPVATEATVVVRGKEHLGDIRHTFPAGKKHILPIYGLYADYENKIELIMANGQKNTIKIQTEPLHTDVPVATSIKTTPEYMGNNLMFLTAAMRSMPVGYDYAGDIRWYATKNFAFDLKRLPNGHILVGTERLVKMPYFTTGLYEMAFSGKIFKEYVLPSGYHHDQFPMEDGNILVLTFDFYSGTVEDMCVLLDAKTGEVLKSWDYKKVLPQDVAGSGSQDEHDWFHNNAVWYDKKTNSLSLSGRHQDAVINIDYETGELNWIIGDPEGWPKEMVDKYFFTPVGDGDFDWQYEQHACVVLPDGDIMLFDNGHFRAKNKENYWPNSKNFSRGVRYRIDTEKMTIKQVWQYGKERGAEFFSPYICNVEYYNEGHYLVHSGGIGYENGKPCEGMAVMKTMQPEFKDNVYTFNSITCELKDDVLMYELQVPANCYRAEKLPLYYANETAELGAGEILGNLIKTEETKMKIKAEETGALVPDHFQASITEEEDRFLFNAIFDAGEMAQLLLVNEAGEIKRYPINTVPQAFQAMCVGTFQKADPRNIDTFINKIGLSGNYQVKLVAEEKVYETGVTIKA
notes: recombinant from E. coli BL21(DE3), C-terminal His-tag, IMAC purified, about 70-76 kDa
Km (purified protein [1]): 500 µM
Vmax (purified protein [1]): 5.3 µmol/min/mg
kcat (purified protein [1]): 6.3 s⁻¹
kcat/Km (purified protein [1]): 12600 M⁻¹ s⁻¹

B2: ASSTDor (Desulfosporosinus orientis DSM 765) (protein)
chain: MSVKFKSFDHIITEQYQAEQAFLTEYQKGEYSFNNPYVKLNPYIIAPLTALVMFKTAQPTTVTITVKGKDKNGDICFNFPTAIEHLIPVYGLYANYANKVELALGDGKTNVITIQTEAAPEIVKLPTQINTTADYFEDNIMFVSPTSTAATAGYDYNGDVRWYGSLNFAFDIKRAKNGRLLLGTHRLVTPPYHTTGLYEMGMIGKIYKEYRLPSGYHHDQFEMEDGNLLILSQDLPRGTVEDMCVLVDRKTGQIIKSWDYQKVLPTNAGGSGSQDSHDWFHNNAVWYDKKTNSLTLSGRHQDIIINLDFETGALNWIIGDPEGWPKELVDNYFFKPVGKGEFDWQYEQHACVVCPNGDIMAFDNGHWRSKIKENYVTANDNFSRGVRYRIDTKKMEIEQVWQYGKERGAEFFSTYICNVEYYDEGHYLIHSGGIGSIDGEALNKPPVQFRGEDEKKVVFNSITVELKDDVMMYEMQLPANYYRAEKLKLYAAEDVLTLGKGELLGTLGVTEEFTTIPPAEEGGMVPEKYNVKLGLEEDRLIFKATFEKGQMVLLQLEGETTHSYFVPTTKRPFLAMCVGTFQESDDRAVEFPVSREGLAGGFRVSLIVDAYKYETGVTIKL
notes: as for B1
Km (purified protein [2]): 1000 µM
Vmax (purified protein [2]): 0.5 µmol/min/mg
kcat (purified protein [2]): 0.6 s⁻¹
kcat/Km (purified protein [2]): 600 M⁻¹ s⁻¹

B3: ASSTC (Desulfitobacterium hafniense) (protein)
chain: MVDYEYCPHIITKQNELEKAFMEKFEAGNYSLENPLVILNPYGVAPLTAMILFNTPIACEAKIIVKGKEHPGDIQHTFPAATRHILPVYGLYGGYKNTIKIILSTSSSNTITIQTEPLPKSVAIPSSIKTTSEYMGNNLMFLSPSMASLTVGYDYAGDVRWYCSLNVCFDLKRMPNGHLLIGTGRLVKVPYYTSGLYEMAFSGKIFKEFILPGGYHHDQFVMEDGNLLVLTQDFYADTVEDVCVLIDPHSGDILKKWDFKNILPQDVAGSGTQTAHDWFHNNAVWYDNRTNSLTLSGRHQDVIINIDYETGGLNWMIGDPEGWPQELVDKYFFTPAGDGEFDWQYEQHGCVVLPDGDIMVFDNGHYRSKNKENYRLNKDNFSRGVRYRIDTERMTIQQIWQYGKERGADFFSPFICNVEYYDEGHYMVHSGGIGYENGKPCEGLAVGKSKNPKFKDNVYTLNSITCELVNDELVYELQVPANFYRAEKLPIYYANEVAELCEGQRLGQFVETQTTRMKIKALETKEPIPEHYQAKIVEEEDRFCLNAIYESGETAQLLLVSESDEILRYPINTVAQAYGAMCVGTFQKSDPRNVDTFVTKTGLSGKYQVKLVAEDKIYETGVTISA
notes: as for B1
Km (purified protein [3]): 200 µM
Vmax (purified protein [3]): 0.6 µmol/min/mg
kcat (purified protein [3]): 0.7 s⁻¹
kcat/Km (purified protein [3]): 3600 M⁻¹ s⁻¹

B4: ASSTHeff (Hungatella effluvii) (protein)
chain: MIRYEKKNSLITQQAEAEQKFLETFEAGAYTASSPLVVRNPYLISPLSAMILFKTAVKQEVTLTVKGKEPEGDISHTFPADTIHILPVYGLYADCENTVELILSGGERETVMIKTEPLPPEVPVPTFCKGSGAHMGDNVIFLTQTSKADALACDYRGDVRWYLTVNVCFDMKRLANGHLLVGTDRLIKLPYYVSGVYEMGVHGKIYREYRLPGGYHHDTFEMEDGNILMLSQIPDRDTVEDVLVLVNRQTGAIVRTWDYREILPYDCQTTWSGSASAHDWFHNNAVWYDKKTDSITLSGRHQDAVINIDFKTGALNWILGDPEGWPEEYVEKYFFRPISEPFEWSYEQHGVVVCPDGDIMMFDNGHYRSKLKAHYSKAKDSYSRGVRYHIDREARTIEQVWQYGKERGADFFSPYICNVEYYDEGRYMVHSGGIAYKDGEPLEGLGSMDGTGEGCTLNAITCELVNDEVVYELHVPSNVFRAEKLPMYYAGETAELGAGKTLGSMSRTGEFETEIPAVCTGDLIPEHYEASVTEEEDRILFNATFEKGELAMLLLEEEDGKAHRYYINTSAAKNFEAMCVGTFLKNDPRNVDVYVNKCGMSKNVKVRVLLEDKIYETGVEIRME
notes: as for B1
Km (purified protein [4]): 2100 µM
Vmax (purified protein [4]): 39.8 µmol/min/mg
kcat (purified protein [4]): 46.9 s⁻¹
kcat/Km (purified protein [4]): 22300 M⁻¹ s⁻¹

B5: ASSTDdeh (Desulfitobacterium dehalogenans ATCC 51507) (protein)
chain: MMNPIKSEQIPHIIHRQKDFEEAFLAEFSAGHYTLANPLVELNPYEICPLTAMILFETPVSTEATIIVRGKEHPGDIRHTFPANKKHILPIYGLYADYENKVEIVLANGQRNTVTIKTGPLHPDVPVATSIKTTSEYMGNNLMFLTAAMKAMPVGYDYAGEVRWYATRNFAFDLKRIPNGHILIGTERLVKMPYFTTGLYEMAFSGKIFKEYRLPSGYHHDQFVMEDGNILVLTFDFYSGTVEDMCVLLDAETGEILKSWDYKKVLPQDVAGSGSQDAHDWFHNNAVWYDRKTNSLSLSGRHQDAVINIDYETGELNWIIGDPEGWPQDMVDQYFFTPVGEGEFDWQYEQHACVVLPDGDIMLFDNGHFRAKNKENYLPNSQNFSRGVRYRIDTEKMTIEQVWQYGKERGAEFFSPYICNVEYYDEGHYLVHSGGIGYENGETCEGMAVMKVLQPEFKDNVYTFNSITCELKDDVLMYELQVPANCYRAEKLPLYYAYETAELGEGKILGNLVETQETKMKIKAVETGERVPDHYEASITEEEDRILLNAIFDAGELAQLLLVDGDGGVKRYPISTVPQAFQAMCVGTFQKADPRNIDVYINKTGLSGKYQVKLIAEEKLYETGVSITA
notes: as for B1
Km (purified protein [5]): 400 µM
Vmax (purified protein [5]): 21.2 µmol/min/mg
kcat (purified protein [5]): 25.3 s⁻¹
kcat/Km (purified protein [5]): 63200 M⁻¹ s⁻¹
